The source of these data is publication PMC11673900 (Journal of Translational Medicine, 2024).

In the assay the target is GST-tagged PARP1, full-length (human, UniProt P09874 1-1014). The assay is described as follows: co-IP.
Chain of GST-tagged PARP1, full-length (P09874 whole entry): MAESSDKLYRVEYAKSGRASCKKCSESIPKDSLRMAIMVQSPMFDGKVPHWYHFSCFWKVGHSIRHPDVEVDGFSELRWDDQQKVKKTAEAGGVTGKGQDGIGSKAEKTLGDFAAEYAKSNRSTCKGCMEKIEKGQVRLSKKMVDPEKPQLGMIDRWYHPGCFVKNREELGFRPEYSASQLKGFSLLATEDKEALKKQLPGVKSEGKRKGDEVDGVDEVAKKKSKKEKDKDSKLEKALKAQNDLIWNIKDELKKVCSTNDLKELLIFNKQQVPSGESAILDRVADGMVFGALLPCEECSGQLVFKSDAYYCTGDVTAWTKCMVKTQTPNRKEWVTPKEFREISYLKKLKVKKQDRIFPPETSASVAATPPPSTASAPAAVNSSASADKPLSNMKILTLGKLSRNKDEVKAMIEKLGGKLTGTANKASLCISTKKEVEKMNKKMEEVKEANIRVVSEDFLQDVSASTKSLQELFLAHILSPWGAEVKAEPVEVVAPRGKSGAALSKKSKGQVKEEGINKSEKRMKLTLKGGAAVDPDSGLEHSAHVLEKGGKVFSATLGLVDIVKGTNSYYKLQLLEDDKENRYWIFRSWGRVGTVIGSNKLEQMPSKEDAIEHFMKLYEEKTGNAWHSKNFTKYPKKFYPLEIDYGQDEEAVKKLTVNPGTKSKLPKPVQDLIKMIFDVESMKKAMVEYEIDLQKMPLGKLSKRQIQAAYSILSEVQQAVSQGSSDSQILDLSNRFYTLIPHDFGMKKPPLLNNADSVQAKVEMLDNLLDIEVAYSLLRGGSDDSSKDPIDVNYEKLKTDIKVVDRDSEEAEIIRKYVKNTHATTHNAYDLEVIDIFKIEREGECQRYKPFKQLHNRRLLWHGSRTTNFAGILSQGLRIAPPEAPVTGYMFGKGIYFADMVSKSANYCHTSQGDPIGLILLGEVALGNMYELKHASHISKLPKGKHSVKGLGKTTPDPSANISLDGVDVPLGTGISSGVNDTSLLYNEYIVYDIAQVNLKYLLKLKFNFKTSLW

B1: MBP-tagged NONO (natural protein, human, UniProt Q15233 1-471, looked up)
chain: MQSNKTFNLEKQNHTPRKHHQHHHQQQHHQQQQQQPPPPPIPANGQQASSQNEGLTIDLKNFRKPGEKTFTQRSRLFVGNLPPDITEEEMRKLFEKYGKAGEVFIHKDKGFGFIRLETRTLAEIAKVELDNMPLRGKQLRVRFACHSASLTVRNLPQYVSNELLEEAFSVFGQVERAVVIVDDRGRPSGKGIVEFSGKPAARKALDRCSEGSFLLTTFPRPVTVEPMDQLDDEEGLPEKLVIKNQQFHKEREQPPRFAQPGSFEYEYAMRWKALIEMEKQQQDQVDRNIKEAREKLEMEMEAARHEHQVMLMRQDLMRRQEELRRMEELHNQEVQKRKQLELRQEEERRRREEEMRRQQEEMMRRQQEGFKGTFPDAREQEIRMGQMAMGGAMGINNRGAMPPAPVPAGTPAPPGPATMMPDGTLGLTPPTTERFGQAATMEGIGAIGGTPPAFNRAAPGAEFAPNKRRRY
For B1, the binding result is “binds”.
